Data as given in patent US9751918B2, “Transgenic plants expressing cobalamin binding proteins” (XERAGENX LLC, priority 2001, dated 2017).

How the values were obtained:
[1] = target: human intestinal receptor protein cubilin (Homo sapiens, UniProt O60494); test: BIAcore 2000 binding of intrinsic factor to immobilized cubilin; settings: for binding to cubilin, holo-form: intrinsic factor saturated with vitamin B12 (holo-form); for binding to cubilin, apo-form: intrinsic factor unsaturated with vitamin B12 (apo-form)
Chain of human intestinal receptor protein cubilin (O60494 36-3623): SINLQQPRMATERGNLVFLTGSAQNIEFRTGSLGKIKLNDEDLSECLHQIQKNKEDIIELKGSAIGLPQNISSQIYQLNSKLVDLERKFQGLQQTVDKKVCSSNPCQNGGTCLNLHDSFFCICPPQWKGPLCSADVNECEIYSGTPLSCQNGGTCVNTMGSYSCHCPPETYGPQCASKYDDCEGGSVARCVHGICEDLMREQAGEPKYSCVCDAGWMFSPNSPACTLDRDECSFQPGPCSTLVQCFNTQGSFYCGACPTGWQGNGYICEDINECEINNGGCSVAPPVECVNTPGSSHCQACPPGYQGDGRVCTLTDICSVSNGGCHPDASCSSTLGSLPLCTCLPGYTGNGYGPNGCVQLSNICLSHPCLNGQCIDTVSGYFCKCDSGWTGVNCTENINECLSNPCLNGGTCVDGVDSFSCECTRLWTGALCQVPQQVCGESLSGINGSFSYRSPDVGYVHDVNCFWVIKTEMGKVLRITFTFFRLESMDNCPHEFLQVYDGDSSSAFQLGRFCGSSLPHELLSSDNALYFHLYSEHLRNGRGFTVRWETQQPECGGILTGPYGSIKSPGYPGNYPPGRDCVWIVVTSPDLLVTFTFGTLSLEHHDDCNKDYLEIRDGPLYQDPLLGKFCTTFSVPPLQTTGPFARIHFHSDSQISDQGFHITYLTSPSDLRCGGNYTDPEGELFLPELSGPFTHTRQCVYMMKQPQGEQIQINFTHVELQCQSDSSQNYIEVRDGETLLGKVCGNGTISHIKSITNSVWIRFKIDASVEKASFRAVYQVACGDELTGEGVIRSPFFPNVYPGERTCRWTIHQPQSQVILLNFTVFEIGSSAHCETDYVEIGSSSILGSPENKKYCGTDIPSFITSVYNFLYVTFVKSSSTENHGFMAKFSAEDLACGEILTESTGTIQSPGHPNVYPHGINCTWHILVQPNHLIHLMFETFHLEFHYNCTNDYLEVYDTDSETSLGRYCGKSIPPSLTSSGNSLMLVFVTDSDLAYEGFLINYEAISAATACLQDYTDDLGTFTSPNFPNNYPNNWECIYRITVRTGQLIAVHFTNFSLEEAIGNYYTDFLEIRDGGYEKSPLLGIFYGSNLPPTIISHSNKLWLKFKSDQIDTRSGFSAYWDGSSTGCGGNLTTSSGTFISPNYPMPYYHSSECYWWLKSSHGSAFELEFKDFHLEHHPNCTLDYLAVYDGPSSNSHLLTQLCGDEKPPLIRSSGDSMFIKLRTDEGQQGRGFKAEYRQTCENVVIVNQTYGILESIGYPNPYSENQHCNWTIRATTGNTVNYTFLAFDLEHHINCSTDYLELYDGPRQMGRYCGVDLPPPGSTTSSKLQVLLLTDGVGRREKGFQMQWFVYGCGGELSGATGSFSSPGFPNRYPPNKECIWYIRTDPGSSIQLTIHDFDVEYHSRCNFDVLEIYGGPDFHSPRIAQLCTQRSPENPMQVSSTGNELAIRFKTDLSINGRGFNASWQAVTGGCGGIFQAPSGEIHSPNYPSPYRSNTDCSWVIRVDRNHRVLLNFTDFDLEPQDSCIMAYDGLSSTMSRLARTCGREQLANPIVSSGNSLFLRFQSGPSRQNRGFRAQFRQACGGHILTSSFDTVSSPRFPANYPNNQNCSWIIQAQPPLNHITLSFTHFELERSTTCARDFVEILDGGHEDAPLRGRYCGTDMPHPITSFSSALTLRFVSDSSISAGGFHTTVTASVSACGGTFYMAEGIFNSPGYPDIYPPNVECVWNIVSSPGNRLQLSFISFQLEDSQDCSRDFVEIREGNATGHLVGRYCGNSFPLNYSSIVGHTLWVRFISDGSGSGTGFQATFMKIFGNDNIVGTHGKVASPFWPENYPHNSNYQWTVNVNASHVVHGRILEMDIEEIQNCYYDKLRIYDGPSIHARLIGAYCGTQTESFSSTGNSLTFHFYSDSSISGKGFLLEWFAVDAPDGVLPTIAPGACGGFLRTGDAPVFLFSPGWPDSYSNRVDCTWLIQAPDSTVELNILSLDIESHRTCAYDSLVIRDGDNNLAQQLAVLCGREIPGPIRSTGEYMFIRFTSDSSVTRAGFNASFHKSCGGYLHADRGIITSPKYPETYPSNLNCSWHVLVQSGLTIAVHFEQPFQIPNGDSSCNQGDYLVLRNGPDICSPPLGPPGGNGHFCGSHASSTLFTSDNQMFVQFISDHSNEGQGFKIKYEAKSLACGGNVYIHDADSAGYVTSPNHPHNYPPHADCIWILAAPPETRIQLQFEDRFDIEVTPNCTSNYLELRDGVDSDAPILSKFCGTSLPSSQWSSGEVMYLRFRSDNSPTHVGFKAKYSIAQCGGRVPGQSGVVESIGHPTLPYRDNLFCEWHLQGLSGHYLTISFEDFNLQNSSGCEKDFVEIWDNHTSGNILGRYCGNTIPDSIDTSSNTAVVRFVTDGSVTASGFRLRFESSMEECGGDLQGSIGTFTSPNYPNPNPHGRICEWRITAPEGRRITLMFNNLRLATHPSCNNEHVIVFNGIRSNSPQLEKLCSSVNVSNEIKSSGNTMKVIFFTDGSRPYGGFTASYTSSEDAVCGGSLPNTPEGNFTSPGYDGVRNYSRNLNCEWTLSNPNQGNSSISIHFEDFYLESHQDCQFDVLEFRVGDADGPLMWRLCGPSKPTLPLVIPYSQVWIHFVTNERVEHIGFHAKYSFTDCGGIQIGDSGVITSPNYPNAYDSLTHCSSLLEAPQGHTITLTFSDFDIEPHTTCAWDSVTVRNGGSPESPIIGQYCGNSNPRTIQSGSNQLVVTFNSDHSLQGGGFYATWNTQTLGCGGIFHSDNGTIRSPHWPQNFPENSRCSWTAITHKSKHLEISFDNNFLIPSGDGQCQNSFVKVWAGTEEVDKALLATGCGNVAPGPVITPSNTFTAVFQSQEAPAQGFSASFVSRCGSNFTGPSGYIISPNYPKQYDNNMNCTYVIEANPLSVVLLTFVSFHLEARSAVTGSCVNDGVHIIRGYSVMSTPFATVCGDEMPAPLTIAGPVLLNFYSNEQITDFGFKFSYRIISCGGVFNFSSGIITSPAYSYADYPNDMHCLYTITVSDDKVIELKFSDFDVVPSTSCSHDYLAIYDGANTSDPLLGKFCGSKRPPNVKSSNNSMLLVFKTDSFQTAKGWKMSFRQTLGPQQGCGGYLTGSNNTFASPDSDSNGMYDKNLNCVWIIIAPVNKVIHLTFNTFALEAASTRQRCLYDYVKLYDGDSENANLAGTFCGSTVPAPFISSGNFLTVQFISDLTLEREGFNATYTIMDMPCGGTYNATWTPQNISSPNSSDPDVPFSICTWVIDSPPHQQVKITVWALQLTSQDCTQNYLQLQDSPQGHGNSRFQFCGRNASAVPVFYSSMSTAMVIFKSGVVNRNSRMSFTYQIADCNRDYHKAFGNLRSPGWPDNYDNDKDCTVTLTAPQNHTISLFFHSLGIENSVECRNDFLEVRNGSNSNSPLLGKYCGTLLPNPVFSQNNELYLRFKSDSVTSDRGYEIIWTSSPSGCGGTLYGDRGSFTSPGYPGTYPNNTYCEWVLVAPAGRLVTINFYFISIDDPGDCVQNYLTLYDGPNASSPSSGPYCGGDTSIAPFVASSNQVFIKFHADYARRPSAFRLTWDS
Chain of human intestinal receptor protein cubilin (P27352 19-417 partner): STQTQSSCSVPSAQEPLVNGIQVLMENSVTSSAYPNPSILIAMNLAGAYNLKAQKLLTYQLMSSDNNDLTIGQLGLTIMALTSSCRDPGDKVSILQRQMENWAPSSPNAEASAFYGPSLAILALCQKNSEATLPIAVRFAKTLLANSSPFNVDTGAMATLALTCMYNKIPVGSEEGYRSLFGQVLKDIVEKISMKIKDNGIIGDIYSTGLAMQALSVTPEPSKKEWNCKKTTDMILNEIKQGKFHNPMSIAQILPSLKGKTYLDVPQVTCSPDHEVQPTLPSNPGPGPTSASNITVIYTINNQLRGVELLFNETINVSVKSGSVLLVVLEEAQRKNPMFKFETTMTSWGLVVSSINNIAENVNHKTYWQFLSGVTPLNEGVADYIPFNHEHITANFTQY
Description: The binding between intrinsic factor and its receptor cubilin was analysed employing a BIAcore 2000 instrument (Biacore AB, Uppsala, Sweden). An increase in Resp. Diff. (Y axis) indicates binding between intrinsic factor and cubilin. At time approximately 100 a solution with intrinsic factor is added to the immobilized cubilin. Intrinsic factor was isolated from transgenic plants, human gastric juice and hog stomach. Preparations of vitamin B 12 saturated and vitamin B12 unsaturated intrinsic factor were used. At time approximately 600 intrinsic factor is removed from the solution and the dissociation between cubilin and intrinsic factor is followed.

[2] = Competitive binding of 57Co-labelled cobalamin versus unlabelled cobinamide; settings: 57Co-cobalamin mixed with increasing non-radioactive cobinamide; bound fraction by gamma counter
Description: (§1) Equal amounts of the respective proteins were added to a mixture containing a fixed amount of cobalt (57Co) labelled cobalamin mixed with increasing amounts of non-radioactive cobalamin or cobinamide (X axis). Free and bound ligand were separated and the amount of 57Co attached to the protein was measured in a gamma counter. The 57Co fraction bound relative to the amount of 57Co bound in the absence of unlabeled cobalamin or cobinamide was calculated (Y axis).
(§2) Both recombinant proteins were extracted form transgenic Arabidopsis thaliana plants. Equal amounts of the respective proteins were added to a mixture containing a fixed amount of cobalt (57Co) labeled cobalamin mixed with increasing amounts of nonradioactive cobalamin or cobinamide (X axis). Free and bound ligand was separated and the amount of 57Co attached to the protein was measured in a gamma counter. The 57Co fraction bound relative to the amount of 57Co bound in the absence of unlabelled cobalamin or cobinamide was calculated (Y axis).
(§3) One kilogram of three week old IF-plants was homogenization with 2 liters of phosphate buffer and clarified by centrifugation. This extract contained 100 mg recombinant human IF with CBC. This IF had specificity for cobalamin binding whereas the analog cobinamid was not bound by the IF as tested by the method described by (15).

[3] = Competitive binding of 57Co-labelled cobalamin versus unlabelled cobalamin; settings: 57Co-cobalamin mixed with increasing non-radioactive cobalamin, bound fraction by gamma counter
Description: as §1, §2, §3

[4] = listed as recombinant intrinsic factor
[5] = listed as native intrinsic factor

Row | Molecule | binding to cubilin, holo-form [1] | binding to cubilin, holo-form [1, 4] | binding to cubilin, apo-form [1] | binding to cubilin, apo-form [1, 4] | ability to bind cobinamid [2] | ability to bind cobalamin [3] | ability to bind cobalamin ([3]; listed as recombinant IF) | ability to bind cobalamin ([3]; listed as recombinant human intrinsic factor) | binding to cubilin, holo-form ([1]; listed as human gastric IF) | binding to cubilin, holo-form [1, 5] | binding to cubilin, apo-form ([1]; listed as human gastric IF) | binding to cubilin, apo-form [1, 5] | ability to bind cobalamin ([3]; listed as native IF) | ability to bind cobalamin ([3]; listed as recombinant human transcobalamin)
1 | rhIF from plants: Recombinant human intrinsic factor extracted from transgenic Arabidopsis thaliana plants (mature sequence SEQ ID NO:4) | binds | binds to cubilin | does not bind | only when saturated with vitamin B12 | not cobinamid | specificity for binding Cbl | specificity for binding cobalamin | bind cobalamin | – | – | – | – | – | –
2 | native human gastric IF: Native intrinsic factor present in / isolated from human gastric juice, used for comparison [reference compound] | – | – | – | – | not cobinamid | specificity for binding Cbl | – | – | bind to the cubulin receptor | binds to cubilin | only when in holo-form | only when saturated with vitamin B12 | specificity for binding cobalamin | –
3 | rhTC: Recombinant human transcobalamin extracted from transgenic Arabidopsis thaliana plants (mature sequence SEQ ID NO:11) (protein, plant-expressed; homo sapiens) EMCEIPEMDSHLVEKLGQHLLPWMDRLSLEHLNPSIYVGLRLSSLQAGTKEDLYLHSLKLGYQQCLLGSAFSEDDGDCQGKPSMGQLALYLLALRANCEFVRGHKGDRLVSQLKWFLEDEKRAIGHDHKGHPHTSYYQYGLGILALCLHQKRVHDSVVDKLLYAVEPFHQGHHSVDTAAMAGLAFTCLKRSNFNPGRRQRITMAIRTVREEILKAQTPEGHFGNVYSTPLALQFLMTSPMPGAELGTACLKARVALLASLQDGAFQNALMISQLLPVLNHKTYIDLIFPDCLAPRVMLEPAAETIPQTQEIISVTLQVLSLLPPYRQSISVLAGSTVEDVLKKAHELGGFTYETQASLSGPYLTSVMGKAAGEREFWQLLRDPNTPLLQGIADYRPKDGETIELRLVSW | – | – | – | – | not cobinamid | binds to Cbl | – | – | – | – | – | – | – | bind cobalamin
